Test results from patent US20080299140A1, “Immunogenic Composition and Peptide Sequences for Prevention and Treatment of an Hsv Condition” (priority 2002, published 2008).

Experiments:
[1] = target: HLA-DR(α1*0101,α1*1501) (human); test: reference IC50 of the tracer peptide in the HLA class II competition assay
[2] = target: HLA-DR(α1*0101,α1*1101) (human); test: as above
[3] = target: HLA-DR(α1*0101,α1*1501) (human); test: competition assay on purified HLA; tracer A3 (152-166)
[4] = target: HLA-DR(α1*0101,α1*1301) (human); test: competition assay on purified HLA; tracer B1 (21-36)
[5] = target: HLA-DR(α1*0101,α3*0101) (human); test: competition assay on purified HLA; tracer LOL (191-210)
[6] = target: HLA-DR(α1*0101,α1*0401) (human); test: competition assay on purified HLA; tracer HA (307-319)
[7] = target: HLA-DR(α1*0101,α5*0101) (human); test: as above
[8] = target: HLA-DR(α1*0101,α1*1101) (human); test: as above
[9] = target: HLA-DR(α1*0101,α1*0701) (human); test: competition assay on purified HLA; tracer YKL
[10] = target: DP401=HLA-DP(α1*0101,α1*0401) (human); test: HLA class II competition binding assay, biotinylated tracer peptide
[11] = target: DRB3=HLA-DR(α1*0101,α3*0101) (human); test: as above
[12] = target: DR15=HLA-DR(α1*0101,α1*1501) (human); test: as above
[13] = target: DR13=HLA-DR(α1*0101,α1*1301) (human); test: as above
[14] = target: DR7=HLA-DR(α1*0101,α1*0701) (human); test: as above
[15] = target: DRB5=HLA-DR(α1*0101,α5*0101) (human); test: as above
[16] = target: DR3=HLA-DR(α1*0101,α1*0301) (human); test: as above
[17] = target: DRB4=HLA-DR(α1*0101,α4*0101) (human); test: as above
[18] = target: DR11=HLA-DR(α1*0101,α1*1101) (human); test: as above
[19] = target: DP402=HLA-DR(α1*0101,α1*0402) (human); test: as above
[20] = target: DR4=HLA-DR(α1*0101,α1*0401) (human); test: as above
[21] = target: HLA-DR(α1*0101,α1*0301) (human); test: competition assay on purified HLA; tracer MT (2-16)
[22] = target: HLA-DP(α1*0101,α1*0401) (human); test: competition assay on purified HLA; tracer bOxy 271-287
[23] = target: DP (α1*0101, α1*0402) (human); test: as above
[24] = target: HLA-DR(α1*0101,α4*0101) (human); test: competition assay on purified HLA; tracer E2/E168
[25] = target: HLA-DR(α1*0101,α1*0101) (human); test: competition assay on purified HLA; tracer HA (307-319)
[26] = target: DR1=HLA-DR(α1*0101,α1*0101) (human); test: HLA class II competition binding assay, biotinylated tracer peptide

| Substance | IC50 [3] | IC50 [4] | IC50 [5] | IC50 [6] | IC50 [7] | IC50 [8] | IC50 [9] | IC50 [10] | IC50 [11] | IC50 [12] | IC50 [14] | IC50 [15] | IC50 [16] | IC50 [17] | IC50 [18] | IC50 [19] | IC50 [20] | IC50 [21] | IC50 [23] | IC50 [24] | also measured |
| --- | --- | --- | --- | --- | --- | --- | --- | --- | --- | --- | --- | --- | --- | --- | --- | --- | --- | --- | --- | --- | --- |
| A3 (152-166) (peptide) |  |  |  |  |  |  |  |  |  |  |  |  |  |  |  |  |  |  |  |  | IC50 [1]: 13 nM |
| HA (307-319) (peptide) |  |  |  |  |  |  |  |  |  |  |  |  |  |  |  |  |  |  |  |  | IC50 [2]: 52 nM |
| HSV1 29 (gD1-23) (peptide) | 24500 nM | > 100 µM | 1400 nM | 82 nM | 8 nM | 5250 nM | 894 nM | 17.6 µM | 1400 nM | 24500 nM | 894 nM | 8 nM | 120 nM | 52.5 µM | 5250 nM | 1630 nM | 82 nM | 120 nM | 1630 nM | 52.5 µM | IC50 [13]: > 100 µM; IC50 [22]: 17.6 µM |
| HSV1 33 (gD121-152) (peptide) | 2 nM |  | 226 nM | 8 nM | 134 nM | 289 nM | 19 nM | 0.083 µM | 226 nM | 2 nM | 19 nM | 134 nM | 66 nM | 0.319 µM | 289 nM | 65 nM | 6 nM | 66 nM | 65 nM | 0.319 µM | IC50 [25]: 53 nM; IC50 [26]: 53 nM; IC50 [22]: 0.083 µM |
| HSV1 35 (gD287-317) (peptide) | 6790 nM | > 100 µM | 5000 nM | 600 nM | 4500 nM | 25000 nM |  | > 100 µM | 5000 nM | 6790 nM |  | 4500 nM | 19500 nM | 3.26 µM | 25000 nM | > 100000 nM | 600 nM | 19500 nM | > 100000 nM | 3.26 µM | IC50 [25]: 3160 nM; IC50 [13]: > 100 µM; IC50 [26]: 3160 nM; IC50 [22]: > 100 µM |
| HSV1 37 (gD200-234) (peptide) | 13 nM | 2.05 µM | 41 nM | 40 nM | 68 nM | 44 nM | 200 nM |  | 41 nM | 13 nM | 200 nM | 68 nM | 307 nM | 3.74 µM | 44 nM | 167 nM | 40 nM | 307 nM | 167 nM | 3.74 µM | IC50 [25]: 4 nM; IC50 [13]: 2.05 µM; IC50 [26]: 4 nM |
| HSV1 39 (gD332-358) (peptide) | 950 nM |  | 2310 nM | 5870 nM | 31 nM | 5 nM | 274 nM |  | 2310 nM | 950 nM | 274 nM | 31 nM |  | 0.703 µM | 5 nM | > 100000 nM | 5870 nM |  | > 100000 nM | 0.703 µM |  |
